{"source": "patent US20140294837A1", "about": "(SAMSUNG ELECTRONICS, published 2014)", "key": {"[1]": {"target": "c-Met on cells (MKN45, Caki-1, NCI-H441, HUVEC) (human, UniProt P08581 25-1390)", "sequence (P08581 25-1390)": "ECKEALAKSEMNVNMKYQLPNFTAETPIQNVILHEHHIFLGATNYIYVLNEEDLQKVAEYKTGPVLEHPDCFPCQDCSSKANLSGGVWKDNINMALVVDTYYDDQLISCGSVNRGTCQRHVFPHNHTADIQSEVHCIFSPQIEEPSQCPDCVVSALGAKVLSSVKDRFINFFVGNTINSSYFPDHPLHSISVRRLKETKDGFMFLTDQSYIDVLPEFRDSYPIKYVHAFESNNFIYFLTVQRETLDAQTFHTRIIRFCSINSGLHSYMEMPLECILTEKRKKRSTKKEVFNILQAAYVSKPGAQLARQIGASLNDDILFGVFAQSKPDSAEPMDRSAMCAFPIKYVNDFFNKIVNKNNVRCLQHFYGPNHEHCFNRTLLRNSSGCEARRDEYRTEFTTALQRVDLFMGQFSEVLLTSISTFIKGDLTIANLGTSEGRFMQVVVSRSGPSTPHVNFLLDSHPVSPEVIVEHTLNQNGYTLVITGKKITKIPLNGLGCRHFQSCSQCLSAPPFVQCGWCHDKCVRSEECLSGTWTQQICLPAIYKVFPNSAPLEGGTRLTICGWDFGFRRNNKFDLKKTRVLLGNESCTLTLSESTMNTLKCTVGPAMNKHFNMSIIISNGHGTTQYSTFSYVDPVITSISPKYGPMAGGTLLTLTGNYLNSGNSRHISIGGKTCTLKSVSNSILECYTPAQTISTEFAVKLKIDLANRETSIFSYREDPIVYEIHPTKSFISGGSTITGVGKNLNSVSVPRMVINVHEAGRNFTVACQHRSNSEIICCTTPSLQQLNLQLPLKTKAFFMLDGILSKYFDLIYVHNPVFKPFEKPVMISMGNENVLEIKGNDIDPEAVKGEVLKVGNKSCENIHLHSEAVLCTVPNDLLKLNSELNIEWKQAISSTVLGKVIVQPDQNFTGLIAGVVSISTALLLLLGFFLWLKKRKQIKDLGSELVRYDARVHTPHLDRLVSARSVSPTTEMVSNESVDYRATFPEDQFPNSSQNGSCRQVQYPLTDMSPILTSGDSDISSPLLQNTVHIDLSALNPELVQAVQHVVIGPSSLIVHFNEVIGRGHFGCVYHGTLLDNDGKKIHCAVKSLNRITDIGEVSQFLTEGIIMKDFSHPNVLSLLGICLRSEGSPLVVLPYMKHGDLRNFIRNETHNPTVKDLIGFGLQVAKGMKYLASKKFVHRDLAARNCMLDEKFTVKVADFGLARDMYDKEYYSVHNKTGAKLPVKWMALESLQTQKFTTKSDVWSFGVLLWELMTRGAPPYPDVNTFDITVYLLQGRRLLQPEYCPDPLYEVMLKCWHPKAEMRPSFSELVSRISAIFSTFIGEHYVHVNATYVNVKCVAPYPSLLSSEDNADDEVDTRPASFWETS", "assay": "cell-based or functional assay"}, "[2]": {"target": "T1, c-Met (R&D Systems, Cat. No. 358-MT/CF) (UniProt P08581 25-932)", "T1 construct": "Bought protein used as analyte in SPR", "T1 sequence (P08581 25-932 limits assumed)": "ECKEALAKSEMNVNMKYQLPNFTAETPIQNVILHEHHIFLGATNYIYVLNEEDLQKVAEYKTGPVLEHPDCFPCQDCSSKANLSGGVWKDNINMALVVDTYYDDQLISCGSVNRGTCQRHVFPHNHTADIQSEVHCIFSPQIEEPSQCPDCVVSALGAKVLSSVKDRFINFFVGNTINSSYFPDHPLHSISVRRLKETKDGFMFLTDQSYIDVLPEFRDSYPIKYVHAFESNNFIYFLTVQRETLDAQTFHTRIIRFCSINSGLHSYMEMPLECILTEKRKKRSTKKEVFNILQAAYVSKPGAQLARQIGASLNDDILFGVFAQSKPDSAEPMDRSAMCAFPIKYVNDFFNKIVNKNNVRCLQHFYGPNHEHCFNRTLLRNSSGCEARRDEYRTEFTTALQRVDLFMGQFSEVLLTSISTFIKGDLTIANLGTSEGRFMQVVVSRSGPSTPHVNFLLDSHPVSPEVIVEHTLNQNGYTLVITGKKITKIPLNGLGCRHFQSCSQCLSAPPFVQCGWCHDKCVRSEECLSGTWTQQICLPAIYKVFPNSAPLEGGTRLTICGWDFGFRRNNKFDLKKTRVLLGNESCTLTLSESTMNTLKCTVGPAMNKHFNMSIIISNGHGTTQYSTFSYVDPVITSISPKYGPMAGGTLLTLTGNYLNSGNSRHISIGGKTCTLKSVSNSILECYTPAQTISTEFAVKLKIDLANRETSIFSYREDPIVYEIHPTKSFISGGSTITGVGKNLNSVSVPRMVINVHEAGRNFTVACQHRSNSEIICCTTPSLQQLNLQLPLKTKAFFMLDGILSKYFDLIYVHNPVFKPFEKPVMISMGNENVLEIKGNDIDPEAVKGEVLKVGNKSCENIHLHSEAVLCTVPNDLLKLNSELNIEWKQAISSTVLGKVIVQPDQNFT", "assay": "SPR, Biacore T100; antibody captured by human Fab binder on CM5 chip, c-Met injected", "description": "The binding kinetics of the double-targeted fusion proteins manufactured in the above were analyzed using Biacore T100 instrument (GE Healthcare). A human Fab binding agent (GE Healthcare) was immobilized on the surface of a CM5 chip (GE Healthcare, Cat. No. BR-1005-30) according to the manufacturer's manual. […] Then, 10 mM Glycine-HCl (pH 1.5) solution was added thereto, whereby the surface was regenerated. In order to measure the binding kinetics, the data obtained from the above experiment was fitted using BIAevaluation software (GE Healthcare, Biacore T100 evaluation software)."}, "[3]": {"target": "hVEGF (GE Healthcare, 28-9583-25) (human, UniProt P15692-4 27-191)", "sequence (P15692 other isoform, or with tags, fused parts or gaps limits assumed)": "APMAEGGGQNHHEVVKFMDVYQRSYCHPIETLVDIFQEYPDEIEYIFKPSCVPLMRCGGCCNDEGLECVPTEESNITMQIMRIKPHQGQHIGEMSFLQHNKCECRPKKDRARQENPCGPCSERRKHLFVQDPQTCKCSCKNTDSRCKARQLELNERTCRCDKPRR", "assay": "SPR, Biacore T100; hVEGF immobilized on CM5 chip, MV10AY at 6 concentrations", "description": "The binding kinetics of the double-specific antibodies having VEGF as a target were measured by an SPR method using Biacore T100 instrument (GE Healthcare). hVEGF (GE Healthcare, 28-9583-25) was immobilized on the surface of a CM5 chip according to the manufacturer's manual. […] The obtained surface was regenerated by injecting 1M NaCl+30 mM NaOH at a fluid rate of 30 μl/min for 60 sec. In order to determine binding kinetics, the data obtained from the above experiment was fitted using BIAevaluation software (GE Healthcare) (K_{D=}=0.45 nM)."}, "[4]": {"target": "T2, human c-Met/Fc fusion protein (R&D Systems) (human, UniProt P08581 25-932)", "T2 construct": "Immunogen and ELISA antigen; also called human c-Met/Fc protein; not shown: Fc part of the bought fusion protein; not described", "T2 sequence (P08581 25-932 limits assumed)": "as the sequence (P08581 25-932 limits assumed) above", "assay": "ELISA, hybridoma culture on plate-coated human c-Met/Fc fusion protein"}}}
{"binder": "MV10A (bispecific antibody) heavy: not shown light: DIQMTQSPSSLSASVGDRVTITCKSSQSLLASGNQNNHLAWYQQKPGKAPKMLIIWASTRVSGVPSRFSGSGSGTDFTLTISSLQPEDFATYYCQQSYSRPYTFGQGTKVEIKRTVAAPSVFIFPPSDEQLKSGTASVVCLLNNFYPREAKVQWKVDNALQSGNSQESVTEQDSKDSTYSLSSTLTLSKADYEKHKVYACEVTHQGLSSPVTKSFNRGEC", "values": [{"measurement": "AKT phosphorylation inhibitory ability (phospho-AKT Ser473 ELISA, Caki-1 cells, compared to 5D5 control group)", "setting": "[1]", "result": 79, "unit": "%"}, {"measurement": "c-Met degradation ability (total c-Met ELISA, MKN45 cells, 5 ug/ml antibody, 24 h)", "setting": "[1]", "result": 76, "unit": "%"}]}
{"binder": "huAbF46-H4-A1 (L3-1 origin) (antibody, V domains shown) VH: EVQLVESGGGLVQPGGSLRLSCAASGFTFTDYYMSWVRQAPGKGLEWLGFIRNKANGYTTEYSASVKGRFTISRDNSKNTLYLQMNSLRAEDTAVYYCARDNWFAYWGQGTLVTVSS VL: DIQMTQSPSSLSASVGDRVTITCKSSQSLLASGNQNNHLAWYQQKPGKAPKMLIIWASTRVSGVPSRFSGSGSGTDFTLTISSLQPEDFATYYCQQSYSRPYTFGQGTKVEIKR", "values": [{"measurement": "AKT phosphorylation inhibitory ability (phospho-AKT Ser473 ELISA, Caki-1 cells, compared to 5D5 control group)", "setting": "[1]", "result": 69, "unit": "%"}, {"measurement": "c-Met degradation ability (total c-Met ELISA, MKN45 cells, 5 ug/ml antibody, 24 h)", "setting": "[1]", "result": 68, "unit": "%"}]}
{"binder": "Ab2 (antibody, V domains shown) VH: QVQLVQSGAEVKKPGASVKVSCKASGYIFTAYTMHWVRQAPGQGLDWMGGIKPNNGLANYAQKFQGRVTMTVDKSISTAYMELSRLRSDDTAVYYCARSEITTEFDYWGQGTLVTVSS VL: DIVLTQSPDSLAVSLGERATINCRSSESVDSYANSFMHWYQQKPGQPPKLLIYRASTRESGVPDRFSGSGSRTDFTLTISSLQAEDVAVYYCQQSKEDPLTFGGGTKVEIKR", "values": [{"measurement": "c-Met degradation ability (total c-Met ELISA, method of Example 2.2)", "setting": "[1]", "result": 70.4, "unit": "%"}]}
{"binder": "MV10AY (bispecific antibody, also called bispecific antibody MV10AY; double-specific antibody MV10AY) heavy: not shown light: DIQMTQSPSSLSASVGDRVTITCKSSQSLLASGNQNNYLAWYQQKPGKAPKMLIIWASTRVSGVPSRFSGSGSGTDFTLTISSLQPEDFATYYCQQSYSRPYTFGQGTKVEIKRTVAAPSVFIFPPSDEQLKSGTASVVCLLNNFYPREAKVQWKVDNALQSGNSQESVTEQDSKDSTYSLSSTLTLSKADYEKHKVYACEVTHQGLSSPVTKSFNRGEC", "values": [{"measurement": "Kd", "setting": "[2]", "result": "< 0.01", "unit": "nM"}, {"measurement": "koff", "setting": "[2]", "result": "< 1.4e-05", "unit": "s⁻¹"}, {"measurement": "kon", "setting": "[2]", "result": 680000, "unit": "M⁻¹ s⁻¹"}, {"measurement": "Kd", "setting": "[3]", "result": 0.45, "unit": "nM"}, {"measurement": "koff", "setting": "[3]", "result": 0.0011, "unit": "s⁻¹"}, {"measurement": "kon", "setting": "[3]", "result": "2.4e+06", "unit": "M⁻¹ s⁻¹"}, {"measurement": "AKT phosphorylation inhibitory ability (phospho-AKT Ser473 ELISA, Caki-1 cells, compared to 5D5 control group)", "setting": "[1]", "result": 74, "unit": "%"}, {"measurement": "c-Met degradation ability (total c-Met ELISA, MKN45 cells, 5 ug/ml antibody, 24 h)", "setting": "[1]", "result": 72, "unit": "%"}]}
{"binder": "L3-1Y (antibody, V domains shown, also called c-Met single-targeted antibody L3-1Y) VH: EVQLVESGGGLVQPGGSLRLSCAASGFTFTDYYMSWVRQAPGKGLEWLGFIRNKANGYTTEYSASVKGRFTISRDNSKNTLYLQMNSLRAEDTAVYYCARDNWFAYWGQGTLVTVSS VL: DIQMTQSPSSLSASVGDRVTITCKSSQSLLASGNQNNYLAWYQQKPGKAPKMLIIWASTRVSGVPSRFSGSGSGTDFTLTISSLQPEDFATYYCQQSYSRPYTFGQGTKVEIKR", "values": [{"measurement": "Kd", "setting": "[2]", "result": "< 0.01", "unit": "nM"}, {"measurement": "koff", "setting": "[2]", "result": "< 1.2e-05", "unit": "s⁻¹"}, {"measurement": "kon", "setting": "[2]", "result": 770000, "unit": "M⁻¹ s⁻¹"}, {"measurement": "AKT phosphorylation inhibitory ability (phospho-AKT Ser473 ELISA, Caki-1 cells, compared to 5D5 control group)", "setting": "[1]", "result": 63, "unit": "%"}, {"measurement": "c-Met degradation ability (total c-Met ELISA, MKN45 cells, 5 ug/ml antibody, 24 h)", "setting": "[1]", "result": 66, "unit": "%"}]}
{"binder": "AbF46, a mouse antibody to c-Met (antibody, V domains shown, also called monoclonal antibody of hybridoma KCLRF-BP-00220) VH: EVKLVESGGGLVQPGGSLRLSCATSGFTFTDYYMSWVRQPPGKALEWLGFIRNKANGYTTEYSASVKGRFTISRDNSQSILYLQMDTLRAEDSATYYCARDNWFAYWGQGTLVTVSA VL: DILMTQSPSSLTVSAGEKVTMSCKSSQSLLASGNQNNYLAWHQQKPGRSPKMLIIWASTRVSGVPDRFIGSGSGTDFTLTINSVQAEDLAVYYCQQSYSAPLTFGAGTKLELK", "values": [{"measurement": "binding result", "setting": "[4]", "result": "binds"}]}
{"binder": "MV10AY U3 HC9/IgG2 (bispecific antibody) heavy: EVQLVESGGGLVQPGGSLRLSCAASGFTFTDYYMSWVRQAPGKGLEWLGFIRNKANGYTTEYSASVKGRFTISRDNSKNTLYLQMNSLRAEDTAVYYCARDNWFAYWGQGTLVTVSSASTKGPSVFPLAPCSRSTSESTAALGCLVKDYFPEPVTVSWNSGALTSGVHTFPAVLQSSGLYSLSSVVTVPSSNFGTQTYTCNVDHKPSNTKVDKTVERKCCVECPPCPAPPVAGPSVFLFPPKPKDTLMISRTPEVTCVVVDVSHEDPEVQFNWYVDGVEVHNAKTKPREEQFNSTFRVVSVLTVVHQDWLNGKEYKCKVSNKGLPAPIEKTISKTKGQPREPQVYTLPPSREEMTKNQVSLTCLVKGFYPSDIAVEWESNGQPENNYKTTPPMLDSDGSFFLYSKLTVDKSRWQQGNVFSCSVMHEALHNHYTQKSLSLSPGKGGGGSGGGGSSDTGRPFVEMYSEIPEIIHMTEGRELVIPCRVTSPNITVTLKKFPLDTLIPDGKRIIWDSRKGFIISNATYKEIGLLTCEATVNGHLYKTNYLTHRQTNTI light: DIQMTQSPSSLSASVGDRVTITCKSSQSLLASGNQNNYLAWYQQKPGKAPKMLIIWASTRVSGVPSRFSGSGSGTDFTLTISSLQPEDFATYYCQQSYSRPYTFGQGTKVEIKRTVAAPSVFIFPPSDEQLKSGTASVVCLLNNFYPREAKVQWKVDNALQSGNSQESVTEQDSKDSTYSLSSTLTLSKADYEKHKVYACEVTHQGLSSPVTKSFNRGEC", "values": [{"measurement": "Kd", "setting": "[2]", "result": "< 0.01", "unit": "nM"}, {"measurement": "koff", "setting": "[2]", "result": "< 6.9e-05", "unit": "s⁻¹"}, {"measurement": "kon", "setting": "[2]", "result": 720000, "unit": "M⁻¹ s⁻¹"}]}
